Assay results as given in FireProtDB (doi:10.1016/s0301-4622(99)00119-2).

B1: Cytochrome b5, P00171 (parent)
chain: MAEESSKAVKYYTLEEIQKHNNSKSTWLILHYKVYDLTKFLEEHPGGEEVLREQAGGDATENFEDVGHSTDARELSKTFIIGELHPDDRSKITKPSESIITTIDSNPSWWTNWLIPAISALFVALIYHLYTSEN

Variants of: B1
Settings: Bos taurus, pH 7, Thermal, Absorbance, Sodium phosphate 100 mM, structure 1CYO, whole UniProt chain shown

| Variant | ddG of mutation (higher = less stable) (66.7 °C) [kcal/mol] | ddG of mutation (higher = less stable) (77.6 °C) [kcal/mol] |
| --- | --- | --- |
| MAEESSKAVKYYTLEEIQKHNNSKSTWLILHYKVYDLTKFLEEHPGGEEELREQAGGDATENFEDVGHSTDARELSKTFIIGELHPDDRSKITKPSESIITTIDSNPSWWTNWLIPAISALFVALIYHLYTSEN [V50E] | 2.68 | 2.06 |
| MAEESSKAVKYYTLEEIQKHNNSKSTWLILHYKVYDLTKFLEEHPGGEEYLREQAGGDATENFEDVGHSTDARELSKTFIIGELHPDDRSKITKPSESIITTIDSNPSWWTNWLIPAISALFVALIYHLYTSEN [V50Y] | 1.53 | 1.55 |
| MAEESSKAVKYYTLEEIQKHNNSKSTWLILHYKVYDLTKFLEEHPGGEEHLREQAGGDATENFEDVGHSTDARELSKTFIIGELHPDDRSKITKPSESIITTIDSNPSWWTNWLIPAISALFVALIYHLYTSEN [V50H] | – | 1.39 |
